Source: patent publication US20240383985A1 (QURE BIOTECHNOLOGY SHANGHAI, published 2024)

Target: T1, CD33 naturally expressed on HL60 cells (human, UniProt P20138 18-364)
T1 construct: whole, on cells
Experiment: flow cytometry on HL60 cells, PE-anti human Fc detection
Experimental: Experimental method: HL60 cells were cultured in a 5% CO₂ incubator at 37° C. After trypsin digestion, cells were collected and inoculated into 96-well plates at 100,000 cells per well. Then the plate was subjected to blocking on ice for 1 hour with 2% FBS/PBS. The cells were incubated with different concentrations of trifunctional proteins and control protein on ice for 1 hour, washed with PBS for 3 times, and incubated with PE-anti human Fc (1:200 dilution). The cells were washed with PBS for 3 times, and resuspended with 200 μl PBS. The mean fluorescence value was read by FACS and Graphpad prism software was used to analyze the results.

T1 sequence (P20138 18-364): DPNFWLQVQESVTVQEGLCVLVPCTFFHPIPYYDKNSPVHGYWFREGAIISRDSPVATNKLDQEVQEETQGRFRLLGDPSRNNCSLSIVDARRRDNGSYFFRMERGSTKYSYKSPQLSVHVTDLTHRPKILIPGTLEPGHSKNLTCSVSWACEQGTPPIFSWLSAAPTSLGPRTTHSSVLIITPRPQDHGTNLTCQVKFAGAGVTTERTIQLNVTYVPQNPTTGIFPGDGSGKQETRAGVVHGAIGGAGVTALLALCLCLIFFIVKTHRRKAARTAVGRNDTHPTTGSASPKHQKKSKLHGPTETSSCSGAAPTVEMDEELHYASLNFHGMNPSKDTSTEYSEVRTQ

Binder | binding result
CD33/CD16A/IL-15 trifunctional fusion protein QP42914285 (FC with L234A/L235A mutation for eliminating function) (bispecific antibody, Four-chain heterodimer: anti-CD16A Fab arm and anti-CD33 Fv-IL-15/IL-15Ra arm) light: SYVLTQPSSVSVAPGQTATISCGGHNIGSKNVHWYQQRPGQSPVLVIYQDNKRPSGIPERFSGSNSGNTATLTISGTQAMDEADYYCQVWDNYSVLFGGGTKLTVLRTVAAPSVFIFPPSDEQLKSGTASVVCLLNNFYPREAKVQWKVDNALQSGNSQESVTEQDSKDSTYSLSSTLTLSKADYEKHKVYACEVTHQGLSSPVTKSFNRGEC heavy: QVQLVQSGAEVKKPGESLKVSCKASGYTFTSYYMHWVRQAPGQGLEWMGIINPSGGSTSYAQKFQGRVTMTRDTSTSTVYMELSSLRSEDTAVYYCARGSAYYYDFADYWGQGTLVTVSSASTKGPSVFPLAPSSKSTSGGTAALGCLVKDYFPEPVTVSWNSGALTSGVHTFPAVLQSSGLYSLSSVVTVPSSSLGTQTYICNVNHKPSNTKVDKKVEPKSCDKTHTCPPCPAPEAAGGPSVFLFPPKPKDTLMISRTPEVTCVVVDVSHEDPEVKFNWYVDGVEVHNAKTKPREEQYNSTYRVVSVLTVLHQDWLNGKEYKCKVSNKALPAPIEKTISKAKGQPREPQVYTLPPSREEMTKNQVSLSCAVKGFYPSDIAVEWESNGQPENNYKTTPPVLDSDGSFFLVSKLTVDKSRWQQGNVFSCSVMHEALHNRYTQKSLSLSPGKGGSHHHHHH chain 1: not shown chain 2: not shown | binds
CD33/CD16A/IL-15 trifunctional fusion protein QP743745 (FC wild-type) (bispecific antibody) chain 1: not shown chain 2: not shown light: DIVMTQSPDSLTVSLGERTTINCKSSQSVLDSSTNKNSLAWYQQKPGQPPKLLLSWASTRESGIPDRFSGSGSGTDFTLTIDSPQPEDSATYYCQQSAHFPITFGQGTRLEIKRTVAAPSVFIFPPSDEQLKSGTASVVCLLNNFYPREAKVQWKVDNALQSGNSQESVTEQDSKDSTYSLSSTLTLSKADYEKHKVYACEVTHQGLSSPVTKSFNRGEC heavy: QVQLVQSGAEVKKPGESVKVSCKASGYTFTNYGMNWVKQAPGQGLEWMGWINTYTGEPTYADKFQGRVTMTTDTSTSTAYMEIRNLGGDDTAVYYCARWSWSDGYYVYFDYWGQGTSVTVSSASTKGPSVFPLAPSSKSTSGGTAALGCLVKDYFPEPVTVSWNSGALTSGVHTFPAVLQSSGLYSLSSVVTVPSSSLGTQTYICNVNHKPSNTKVDKKVEPKSCDKTHTCPPCPAPELLGGPSVFLFPPKPKDTLMISRTPEVTCVVVDVSHEDPEVKFNWYVDGVEVHNAKTKPREEQYNSTYRVVSVLTVLHQDWLNGKEYKCKVSNKALPAPIEKTISKAKGQPREPQVYTLPPSREEMTKNQVSLSCAVKGFYPSDIAVEWESNGQPENNYKTTPPVLDSDGSFFLVSKLTVDKSRWQQGNVFSCSVMHEALHNRYTQKSLSLSPGK | binds
CD33/CD16A bispecific antibody QP4115777778 (FC wild-type) (bispecific antibody, human IgG1, kappa, also called QP411577778; CD16A/CD33 bispecific antibody) not shown heavy: QVQLVQSGAEVKKPGESVKVSCKASGYTFTNYGMNWVKQAPGQGLEWMGWINTYTGEPTYADKFQGRVTMTTDTSTSTAYMEIRNLGGDDTAVYYCARWSWSDGYYVYFDYWGQGTSVTVSSASTKGPSVFPLAPSSKSTSGGTAALGCLVKDYFPEPVTVSWNSGALTSGVHTFPAVLQSSGLYSLSSVVTVPSSSLGTQTYICNVNHKPSNTKVDKKVEPKSCDKTHTCPPCPAPELLGGPSVFLFPPKPKDTLMISRTPEVTCVVVDVSHEDPEVKFNWYVDGVEVHNAKTKPREEQYNSTYRVVSVLTVLHQDWLNGKEYKCKVSNKALPAPIEKTISKAKGQPREPQVYTLPPSREEMTKNQVSLSCAVKGFYPSDIAVEWESNGQPENNYKTTPPVLDSDGSFFLVSKLTVDKSRWQQGNVFSCSVMHEALHNRYTQKSLSLSPGKGGSHHHHHH light: DIVMTQSPDSLTVSLGERTTINCKSSQSVLDSSTNKNSLAWYQQKPGQPPKLLLSWASTRESGIPDRFSGSGSGTDFTLTIDSPQPEDSATYYCQQSAHFPITFGQGTRLEIKRTVAAPSVFIFPPSDEQLKSGTASVVCLLNNFYPREAKVQWKVDNALQSGNSQESVTEQDSKDSTYSLSSTLTLSKADYEKHKVYACEVTHQGLSSPVTKSFNRGEC | binds
CD33/CD16A/IL-15 trifunctional fusion protein QP43394340 (FC with L234A/L235A mutation for eliminating function) (bispecific antibody, Four-chain heterodimer, hIgG1 Fc LALA; plasmid names mention Flag and His tags) chain 1: not shown chain 2: not shown light: DIVMTQSPDSLTVSLGERTTINCKSSQSVLDSSTNKNSLAWYQQKPGQPPKLLLSWASTRESGIPDRFSGSGSGTDFTLTIDSPQPEDSATYYCQQSAHFPITFGQGTRLEIKRTVAAPSVFIFPPSDEQLKSGTASVVCLLNNFYPREAKVQWKVDNALQSGNSQESVTEQDSKDSTYSLSSTLTLSKADYEKHKVYACEVTHQGLSSPVTKSFNRGEC heavy: QVQLVQSGAEVKKPGESVKVSCKASGYTFTNYGMNWVKQAPGQGLEWMGWINTYTGEPTYADKFQGRVTMTTDTSTSTAYMEIRNLGGDDTAVYYCARWSWSDGYYVYFDYWGQGTSVTVSSASTKGPSVFPLAPSSKSTSGGTAALGCLVKDYFPEPVTVSWNSGALTSGVHTFPAVLQSSGLYSLSSVVTVPSSSLGTQTYICNVNHKPSNTKVDKKVEPKSCDKTHTCPPCPAPEAAGGPSVFLFPPKPKDTLMISRTPEVTCVVVDVSHEDPEVKFNWYVDGVEVHNAKTKPREEQYNSTYRVVSVLTVLHQDWLNGKEYKCKVSNKALPAPIEKTISKAKGQPREPQVYTLPPSREEMTKNQVSLSCAVKGFYPSDIAVEWESNGQPENNYKTTPPVLDSDGSFFLVSKLTVDKSRWQQGNVFSCSVMHEALHNRYTQKSLSLSPGK | binds
CD33 antibody IgG1 wt subtype QP41154116 (antibody, V domains shown, IgG1 wild-type control antibody; also called antiCD33 antibody) VH: QVQLVQSGAEVKKPGESVKVSCKASGYTFTNYGMNWVKQAPGQGLEWMGWINTYTGEPTYADKFQGRVTMTTDTSTSTAYMEIRNLGGDDTAVYYCARWSWSDGYYVYFDYWGQGTSVTVSS VL: DIVMTQSPDSLTVSLGERTTINCKSSQSVLDSSTNKNSLAWYQQKPGQPPKLLLSWASTRESGIPDRFSGSGSGTDFTLTIDSPQPEDSATYYCQQSAHFPITFGQGTRLEIKR | binds
